“Also recorded” adds a separate entry of the source.
How the values were obtained:
[1] = elevated salt, dilution, extended storage; cited from earlier work
[2] = cited from earlier work
[3] = tested on: C. difficile Strain 630; assay: Bioassay to measure sporulation (spore and total cell CFU/ml); format: cell-based, Clostridium difficile
Experimental: All procedures were performed under anaerobic conditions at room temperature unless otherwise stated. All media and agar plates used were placed in an anaerobic chamber at least 24 hours prior to use. A standard bioassay to measure sporulation was performed using untreated cells, those mixed with nanoparticles consisting of either the Spo0A TFD or empty nanoparticles (containing no TFDs), to determine the effect on C. difficile Strain 630 (a laboratory reference strain that has been sequenced).
An initial overnight culture was generated by mixing 100 μl of a glycerol stock of C. difficile (consisting of spore cells of frozen in 10% glycerol and stored at −20° C.) with 10 ml Robertson's Cooked Meat Medium (Robertson (1916) J. Path. Bacteria 20: 327-349). The following day, 10 ml BHIS media (Brain Heart Infusion media, (McFaddin J. F. (1985) Media for Isolation-Cultivation-Identification-Maintenance of medical Bacteria, Vol. I, Williams and Wilkins, Baltimore) supplemented with 0.1% L-cysteine) was inoculated with 1% of the culture grown in Robertson's (consisting mostly of spore cells). […] 100 μl of this culture was used to inoculate 10 ml of BHIS which was allowed to grow until it had reached an OD600 of approximately 0.3. At this stage the growth is due to germination of spores and consists mainly of exponentially growing vegetative cells. This culture was then used to inoculate the experimental cultures that were performed in triplicate in 10 ml cultures in BHIS incubated at 37° C. The three conditions used were: A) untreated cells; B) treated with 1% (v/v) empty nanoparticles to give a final concentration of 8 μg/ml compound 7—12; C) nanoparticles loaded with Spo0A TFD to give final concentrations of 8 μg/ml compound 7—12 and 0.4 μg/ml TFD.
Aliquots were withdrawn from the cultures at TO, 24, 48, 72 and 96 h and used to calculate the total cell density and spore cell density.
Calculation of Spore Cell Density To measure the number of Colony Forming Units per ml of culture (CFU/ml) of spore cells, a 0.5 ml aliquot was withdrawn and exposed to anaerobic conditions for 25 minutes at 60° C. This heat shock step efficiently kills the vegetative cells but not the spores. A serial dilution of the treated sample was prepared in PBS buffer (Phosphate Buffered Saline) over a range of 10^−1 to 10^−6. 10 μl of each dilution was spotted in duplication onto BHIS plates supplemented with 0.1% taurocholate (which enhances germination), the spots allowed to dry and the plates incubated for 24 h at 37° C. The number of colonies was then counted and the CFU/ml of original culture calculated.
To measure CFU/ml of total cells, meaning vegetative cells plus spore cells, a 0.5 ml aliquot was withdrawn and exposed to anaerobic conditions for 25 minutes at room temperature (to control for the time taken to heat shock the spore sample). The samples were then processed as described above.

[4] = tested on: C. difficile; assay: Cell growth by Optical Density at 600 nm (Example 2); format: cell-based, Clostridium difficile; settings: OD 600 nm; FIG. 4
Experimental: (§1) Conditions of cell growth were as described in Example 1, with care being taken to ensure that the experimental culture consisted of early-exponential vegetative cells that would enter stationary phase during the course of the experiment. Toxin production is developmentally controlled and only beings to occur as cells enter this phase.
Optical Density was measured at 600 nm in a standard spectrophotometer quantified cell growth.

[5] = tested on: Toxins A and B (encoded by tcdAB) in C. difficile; assay: Premier ToxinA&B ELISA of toxin production; format: cell-based, Clostridium difficile; settings: FIG. 5
Experimental: A commercially available ELISA kit (Enzyme-Linked Immunosorbent Assay), Premier™ ToxinA&B, was obtained from Meridian Bioscience Inc. All assays were performed following manufacturers instructions.
as §1
The absorbance of the cells was used to assay an equal amount of biomaterial in each experiment using the described ELISA kit. […] This was set at 100% activity and all other samples were compared to this (FIG. 5). […] At 48 h, where maximal production is expected, only 22% of the untreated level of production was achieved. The maximum level of production for the treated cells was 32% at 72 h.

[6] = tested on: C. difficile; assay: Minimum Inhibitory Concentration (MIC) method; settings: with reference to the compound 7—12 component; 24-well plates, 2 ml BHIS; 1 nM SigH TFD in the loaded nanoparticle; FIG. 7
Experimental: Growth was determined by the Minimum Inhibitory Concentration (MIC) method (Wiegand (2008) Nature Protocols 3: 163-175). Essentially, the antibiotic is diluted to the point where it is ineffective and is no longer able to prevent growth, as judged by the media remaining clear. For C. difficile, these experiments were performed in duplicate in 24-well cell plates containing 2 ml BHIS media with various concentrations of empty nanoparticles or those loaded with the SigH TFD.

[7] = tested on: C. difficile; assay: Cell growth by Optical Density at 420 nm (Example 3); format: cell-based, Clostridium difficile; settings: absorbance 420 nm, over the time course; FIG. 6
Experimental: Optical Density was measured at 420 nm in a standard spectrophotometer quantified cell growth.

Nc1c2c([n+](CCCCCCCCCC[n+]3c4c(c(N)c5ccccc53)CCCC4)c3ccccc13)CCCC2.[Cl-].[Cl-] [Compound 7, 10,10′-(decane-1,10-diyl)bis(9-amino-1,2,3,4-tetrahydroacridinium)dichloride]
stability of complexes formed [1]: forms more stable complexes
in vitro toxicity relative to dequalinium [2]: lower toxicity in vitro compared to dequalinium; also recorded: less in vitro toxicity than dequalinium

B1: Spo0A TFD: dumbbell TFD from Spo0ADB1/Spo0ADB2 with Spo0A binding site, delivered in compound 7—12 nanoparticles (nucleic acid)
chain 1: CTTGGTTTTTCCAAGAGCTTGTGTAGAAGGTTGTCCACAAGTTGTGAAATTTGTCGAAAAGCTATTTATC
chain 2: CCCTCTTTTTGAGGGGATAAATAGCTTTTCGACAAATTTCACAACTTGTGGACAACCTTCTACACAAGCT
modifications: dumbbell decoy delivered in nanoparticles, further chemistry not given here
density of spores ([3]; after heat shock 25 minutes at 60° C., 8 μg/ml compound 7—12 and 0.4 μg/ml TFD, FIG. 3): 1.54×10^2 CFU/ml
effect on sporulation (in words) ([3]; delivery to cells with nanoparticles, Example 1): strong inhibition of sporulation
spores as percentage of total cells ([3]; treated samples, FIG. 3): < 8.66×10^−5%
reduction of sporulation relative to untreated culture ([3]; treated versus untreated, FIG. 3): six-fold
density of total cells ([3]; vegetative cells plus spore cells, nanoparticles giving 8 μg/ml compound 7—12 and 0.4 μg/ml TFD, BHIS, 37° C., FIG. 3): 1.78×10^8 CFU/ml

B2: TcdR TFD: dumbbell TFD from TcdRDB1/TcdRDB2 with TcdR recognition site, delivered in compound 7—12 nanoparticles (nucleic acid)
chain 1: CTTGGTTTTTCCAAGAAGTTTACAAAATTATATTAGAATAACTTTTTATT
chain 2: CCCTCTTTTTGAGGGAATAAAAAGTTATTCTAATATAATTTTGTAAACTT
modifications: dumbbell, delivered in nanoparticles, chemistry not fully specified
notes: dumbbell TFD from TcdRDB1/TcdRDB2 with TcdR recognition site, delivered in compound 7—12 nanoparticles
cell growth (growth curves, in words) [4]: failed to grow in a manner similar to untreated cells
toxin production, % of untreated level ([5]; at 48 h, untreated cells at 48 h set at 100%): 22%
maximum level of toxin production, % of untreated 48 h level ([5]; at 72 h, untreated cells at 48 h set at 100%): 32%
pattern of Toxins production (in words) ([5]; time course): produces much less of the Toxins

B3: SigH TFD: dumbbell TFD from SigH DB1/DB2 with binding sites for both Spo0A and SigH, delivered in compound 7—12 nanoparticles (nucleic acid)
chain 1: CTTGGTTTTTCCAAGTAATACGACAAACTAGTTAAATTTCATTGAAGGAATAAAAATATAATTATAGAATTGATTA
chain 2: GCCTCTTTTTGAGGCTAATCAATTCTATAATTATATTTTTATTCCTTCAATGAAATTTAACTAGTTTGTCGTATTA
modifications: dumbbell decoy delivered in nanoparticles, further chemistry not given here
effect on sporulation (in words) ([3]; time course similar to Example 1, FIG. 8): block sporulation significantly
MIC [6]: 3.4 nM

B4: FapR TFD: dumbbell TFD from FapRDB1/FapRDB2 with FapR recognition site, delivered in compound 7—12 nanoparticles (nucleic acid)
chain 1: CTTGGTTTTTCCAAGTAGAATTAGTACCTGATACTAATAATT
chain 2: GCCTCTTTTTGAGGCAATTATTAGTATCAGGTACTAATTCTA
modifications: nanoparticle delivery, chemistry not fully specified
notes: dumbbell TFD from FapRDB1/FapRDB2 with FapR recognition site, delivered in compound 7—12 nanoparticles
cell growth (growth curves, in words) [7]: failed to grow over the time course of the experiment
